# Assay results taken from patent publication US20030082746.
# T1: pro-transglutaminase derived from S. mobaraense IFO13819 (transglutaminase having the pro-structure part)
# T1 sequence: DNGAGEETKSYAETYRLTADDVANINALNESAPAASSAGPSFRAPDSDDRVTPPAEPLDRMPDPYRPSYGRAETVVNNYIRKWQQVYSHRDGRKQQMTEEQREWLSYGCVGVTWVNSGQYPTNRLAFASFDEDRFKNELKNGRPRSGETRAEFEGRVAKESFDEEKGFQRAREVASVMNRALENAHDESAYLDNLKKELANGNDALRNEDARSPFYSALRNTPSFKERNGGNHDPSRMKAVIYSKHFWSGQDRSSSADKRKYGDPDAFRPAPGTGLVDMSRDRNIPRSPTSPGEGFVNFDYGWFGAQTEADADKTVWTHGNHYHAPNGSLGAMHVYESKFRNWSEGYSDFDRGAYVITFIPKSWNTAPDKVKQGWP
# T2: Z-GAP-βNA
# T2 chain: GAP
# T3: AAA-pNA
# T3 chain: AAA
# T4: AAF-pNA
# T4 chain: AAF
# T5: AAP-pNA
# T5 chain: AAP
# T6: GP-βNA
# T6 chain: GP
# T7: Suc-AAPF-pNA
# T7 chain: AAPF
# T8: SFRAP-pNA
# T8 chain: SFRAP
# T9: AP-pNA
# T9 chain: AP
# T10: DP-pNA
# T10 chain: DP
# T11: AFP-pNA
# T11 chain: AFP
# T12: RP-pNA
# T12 chain: RP
# T13: Bz-FVR-pNA
# T13 chain: FVR
# T14: Z-GP-βNA
# T14 chain: GP
# T15: FRAP-pNA
# T15 chain: FRAX
# T16: Z-AGP-βNA
# T16 chain: AGP
# T17: PSFRAP-pNA
# T17 chain: PSFRAP
# T18: AAPL-pNA
# T18 chain: AAPL
# T19: pro-transglutaminase derived from S. mobaraense IFO13819 (transglutaminase having the pro-structure part)
# T19 chain: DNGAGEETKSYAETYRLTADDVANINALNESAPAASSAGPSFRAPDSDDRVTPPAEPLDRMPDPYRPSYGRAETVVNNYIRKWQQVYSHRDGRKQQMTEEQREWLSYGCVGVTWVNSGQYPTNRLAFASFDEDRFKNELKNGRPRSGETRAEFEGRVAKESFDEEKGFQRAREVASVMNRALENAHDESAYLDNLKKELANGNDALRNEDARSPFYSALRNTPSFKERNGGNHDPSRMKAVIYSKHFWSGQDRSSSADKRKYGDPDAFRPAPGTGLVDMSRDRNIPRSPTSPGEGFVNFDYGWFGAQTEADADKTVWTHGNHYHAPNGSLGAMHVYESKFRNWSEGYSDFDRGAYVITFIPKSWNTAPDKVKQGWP
# Key:
# [1] = tested on: T1, pro-transglutaminase derived from S. mobaraense IFO13819 (transglutaminase having the pro-structure part)
# Z-GAP-βNA = biological target: T2, Z-GAP-βNA
# AAA-pNA = biological target: T3, AAA-pNA
# AAF-pNA = biological target: T4, AAF-pNA
# AAP-pNA = biological target: T5, AAP-pNA
# GP-βNA = biological target: T6, GP-βNA
# Suc-AAPF-pNA = biological target: T7, Suc-AAPF-pNA
# SFRAP-pNA = biological target: T8, SFRAP-pNA
# AP-pNA = biological target: T9, AP-pNA
# DP-pNA = biological target: T10, DP-pNA
# AFP-pNA = biological target: T11, AFP-pNA
# RP-pNA = biological target: T12, RP-pNA
# Bz-FVR-pNA = biological target: T13, Bz-FVR-pNA
# Z-GP-βNA = biological target: T14, Z-GP-βNA
# FRAP-pNA = biological target: T15, FRAP-pNA
# Z-AGP-βNA = biological target: T16, Z-AGP-βNA
# PSFRAP-pNA = biological target: T17, PSFRAP-pNA
# AAPL-pNA = biological target: T18, AAPL-pNA
# [2] = biological target: T19, pro-transglutaminase derived from S. …
Molecule,cleavage of the pro-transglutaminases by Dispase digestion (SDS-PAGE) [1],relative activity (%) (Z-GAP-βNA),relative activity (%) (AAA-pNA),relative activity (%) (AAF-pNA),relative activity (%) (AAP-pNA),relative activity (%) (GP-βNA),relative activity (%) (Suc-AAPF-pNA),relative activity (%) (SFRAP-pNA),relative activity (%) (AP-pNA),relative activity (%) (DP-pNA),relative activity (%) (AFP-pNA),relative activity (%) (RP-pNA),relative activity (%) (Bz-FVR-pNA),relative activity (%) (Z-GP-βNA),relative activity (%) (FRAP-pNA),relative activity (%) (Z-AGP-βNA),relative activity (%) (PSFRAP-pNA),relative activity (%) (AAPL-pNA),N-terminal amino acid sequence of the cleaved transglutaminase (SAMP45 and svPEP co-secreted) [2]
Dispase (Boeringer Manheim Co. Ltd.),the cleavage of the pro-transglutaminases was confirmed by SDS-PAGE,,,,,,,,,,,,,,,,,,
proline specific peptidase (svPEP) produced by S. mobaraense IFO13819 (protein) QADIKDRILKIPGMKFVEEKPYQGYRYLVMTYRQPVDHRNPGKGTFEQRFTLLHKDTDRPTVFFTSGYNVSTNPSRSEPTRIVDGNQVSMEYRFFTPSRPQPADWSKLDIWQAASDQHRLYQALKPVYGKNWLATGGSKGGMTATYFRRFYPNDMNGTVAYVAPNDVNDKEDSAYDKFFQNVGDKACRTQLNSVQREALVRRDEIVARYEKWAKENGKTFKVVGSADKAYENVVLDLVWSFWQYHLQSDCASVPATKASTDELYKFIDDISGFDGYTDQGLERFTPYYYQAGTQLGAPTVKNPHLKGVLRYPGINQPRSYVPRDIPMTFRPGAMADVDRWVREDSRNMLFVYGQNDPWSGEPFRLGKGAAARHDYRFYAPGGNHGSNIAQLVADERAKATAEVLKWAGVAPQAVQKDEKAAKPLAPFDAKLDRVKNDKQSALRP,,1.2,8.5,4.1,100,0.4,0.01,1.23,0.53,0,26.3,0.94,0.002,0.04,49,0.78,0.2,0.3,it had the same sequence as the naturally occurring transglutaminase derived from S. mobaraense having Asp as the N-terminal amino acid
